The target in this assay is V5-tagged LvpIgR expressed in HEK293T cells (Litopenaeus vannamei).

The values below come from article PMC7048182.

“GST-tagged VP24 of WSSV (natural protein)” showed a WSSV infection rate of HEK293T cells transfected with LvpIgR, FITC-labelled WSSV preincubated with rPEN2; control preincubated with rTrx: 49.08% of 33.9%.
